Results reported in US20260216242A1, “ALPP-SPECIFIC VARIANT ANTIGEN BINDING MOLECULES” (ALMAC DISCOVERY LIMITED, priority 2022, published 2026).

T1: ALPI His homodimer (Homo sapiens, UniProt P09923)
T1 sequence (P09923 with tags, fused parts or gaps): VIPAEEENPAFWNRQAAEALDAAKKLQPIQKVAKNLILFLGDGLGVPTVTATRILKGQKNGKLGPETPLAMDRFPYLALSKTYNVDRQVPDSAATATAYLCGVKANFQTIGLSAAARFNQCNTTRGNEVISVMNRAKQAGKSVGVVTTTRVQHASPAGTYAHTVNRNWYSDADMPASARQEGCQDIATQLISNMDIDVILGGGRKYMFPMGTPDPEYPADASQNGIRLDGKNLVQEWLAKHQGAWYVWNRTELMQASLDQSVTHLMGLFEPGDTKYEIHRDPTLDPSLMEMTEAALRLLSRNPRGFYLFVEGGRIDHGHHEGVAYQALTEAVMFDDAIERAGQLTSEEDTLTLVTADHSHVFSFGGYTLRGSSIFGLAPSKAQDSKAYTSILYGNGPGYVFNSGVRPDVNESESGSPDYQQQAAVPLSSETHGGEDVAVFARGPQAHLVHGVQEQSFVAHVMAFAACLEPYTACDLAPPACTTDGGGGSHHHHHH


Legend:
ALPP [1] = target: T2, ALPP (Homo sapiens, UniProt P05187); assay: BLI binding kinetics, human ALPP immobilised on AR2G sensors (KD / KD apparent); conditions: for hALPP Ka / hALPP Kd: VHH domains
Method: Binding kinetics were determined using the Biolayer Interferometry (BLI) Octet K2 system (Sartorius). Human ALPP, ALPPL2, ALPL (each fused with a cysteine stabilised leucine zipper) and ALPI, (SEQ ID NO: 265, SEQ ID NO: 266 and SEQ ID NO: 267 and SEQ ID NO: 264 respectively) were immobilised in sodium acetate pH5 buffer to AR2G sensors using amine coupling. All assays were conducted in PBS with a plate temperature of 25° C. Ka (M^−1s^−1), Kd (s^−1) and KD (nM) values were determined using Octet Data Analysis High Throughput software (ForteBio) for Biolayer Interferometry.
(§1) Binding kinetics were determined using the Biolayer Interferometry (BLI) Octet K2 or R4 system (Sartorius). Human ALPP, ALPPL2 and ALPL all fused with a disulphide stabilised leucine zipper (SEQ ID NO: 265, SEQ ID NO: 266, and SEQ ID NO: 267) and ALPI His (SEQ ID NO: 264) were used in BLI experiments. For KD apparent measurements, the ALPP proteins were immobilised in sodium acetate pH5 buffer to AR2G sensors using amine coupling. To measure 1:1 interactions, AHC biosensors were used to immobilise Fc-fused proteins. All assays were conducted in HBS-EP with a plate temperature of 25° C. Ka (M^−1s^−1), Kd (s^−1) and KD (nM) values were determined using Octet Data Analysis High Throughput software (Sartorius) for Biolayer Interferometry.
as §1, with “NO:264)” for “NO: 264)”

ALPI His homodimer = target: T1, ALPI His homodimer; assay: ELISA binding to ALPI; conditions: 500 ng purified VHH
Method: ELISA was used to test the binding and specificity of the VHHs. ALPP CysHis (SEQ ID NO: 263), ALPI His homodimer (SEQ ID NO: 264) or BSA (Thermo Fisher) were coated onto plates and 500 ng of each purified VHH added. Anti-Llama—HRP antibody was used for detection.

[2] = Thermal stability (Protein Thermal Shift assay); assay type: physicochemical; conditions: VHH domains, first derivative analysis
Method: Thermal stability assays used Applied Biosystems StepOne Real Time PCR system with the Protein Thermal Shift™ dye kit (Thermo Fisher). The assay mix was set up so that the protein was at a final concentration of 20 µM in 20 μL. 5 μL of Thermal Shift™ buffer was added alongside 2.5 μL 8× Thermal Shift™ Dye. Assays were run using the StepOne software and data analysed using Protein Thermal Shift™ software. All data are from first derivative analysis.

ALPP [3] = target: T2, ALPP; assay: Epitope binning by BLI competition assay; assay type: binding; conditions: BLI competition on immobilised ALPP
Method: To determine epitope cross reactivity BLI competition assays were conducted. AR2G sensors were used and ALPP immobilised as above. ALPP sensors were then dipped into a well containing a saturating concentration of the initial binder for ten minutes to get an association curve. The sensor was then dipped into a well containing the same concentration of initial binder plus 20 nM of a secondary binding.
An increase in the association curve was indicative that the second VHH bound to a distinct epitope from the initial binder. Monomers with identical CDR3s were grouped as likely to be in the same epitope bin and only one from each group used in the epitope binning experiment.

T2 sequence (P05187 with tags, fused parts or gaps): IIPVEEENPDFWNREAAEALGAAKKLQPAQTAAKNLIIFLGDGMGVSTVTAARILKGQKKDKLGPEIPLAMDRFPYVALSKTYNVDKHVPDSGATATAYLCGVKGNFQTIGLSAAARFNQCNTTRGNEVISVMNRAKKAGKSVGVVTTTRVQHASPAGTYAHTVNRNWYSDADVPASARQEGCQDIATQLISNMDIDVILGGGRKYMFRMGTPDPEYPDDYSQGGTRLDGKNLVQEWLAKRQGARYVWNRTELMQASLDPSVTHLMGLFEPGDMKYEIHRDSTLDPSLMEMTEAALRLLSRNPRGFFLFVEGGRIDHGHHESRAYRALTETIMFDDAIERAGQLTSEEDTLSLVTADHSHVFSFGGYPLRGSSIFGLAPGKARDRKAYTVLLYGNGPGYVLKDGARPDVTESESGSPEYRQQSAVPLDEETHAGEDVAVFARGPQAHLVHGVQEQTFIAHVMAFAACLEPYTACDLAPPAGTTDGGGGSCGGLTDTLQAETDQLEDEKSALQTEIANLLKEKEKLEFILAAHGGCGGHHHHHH

Row | Molecule | hALPP Ka (ALPP [1]) [M⁻¹ s⁻¹] | hALPP Kd (ALPP [1]) [s⁻¹] | ELISA hALPI (ALPI His homodimer) | Tm [2] [°C] | epitope bin (ALPP [3]) | Kd (ALPP [1]; VHH domains (His-tagged monomers), PBS, 25° C., read-out: hALPP KD) [nM]
1 | B09: ALPP targeting VHH domain, SEQ ID NO: 21 (protein) VHH: QVQLVESGGGSVQAGGSLRLSCAASGPSLSHYAMGWFRQAPGKEREFVAGISWGGGRTSYTDSVKGRFTISRDNAKNTVYLQMNNLKPEDTGVYYCAGRYGRGRNVEYEYDYWGQGTQVTVSS | 237000 | <1e-07 | No Binding | 77.1 | one | 
2 | A12: ALPP targeting VHH domain, SEQ ID NO: 19 (protein) VHH: QVHLVECGGGSVQAGGFLRLSCAASGPSLSNYAMGRFRQAPGKEREFVAGISWGGGRTSYTDSVKGRFTISRDNAKNTVYLQMNNLEPEDTGVYYCAGRYGRGRNVEYEYDYWGQGTKVTVSS | 360000 | <1e-07 | No Binding | 76.3 |  | < 0.01
3 | C05: ALPP targeting VHH domain, SEQ ID NO: 23 (protein) VHH: QVQLVESGGGLVQAGGSLRLSCAASRRSFSEYAMGWFRQAPGKEREFVAAIGWSGVIEYADSVKGRFTISRDNAKDTVYLQMNSLKPEDTAVYYCAAGLGIRVVSQTPAYWGQGTQVTVSS | 394000 | <1e-07 | No Binding | 80.6 |  | 
4 | C06: ALPP targeting VHH domain, SEQ ID NO: 24 (protein) VHH: QVQLVESGGGLVQPGGSLRVSCAASGPSLSNYAMGWFRQAPGKEREFVAGISWGGGRTSYTDSVKGRFTISRDNAKNTVYLQMNNLKPEDTGVYYCAGRYGRGRNVEYEYDYWGQGTQVTVSS | 368000 | <1e-07 | No Binding | 71.6 |  | 
5 | D08: ALPP targeting VHH domain, SEQ ID NO: 27 (protein) VHH: QVHLVESGGGSVQAGGSLRLSCAASGPSLSNYAMGWFRQAPGKEREFVAGISWGGGRTSYTDSVKGRFTISRDNAKNTVYLQMNNLKPEDTGVYYCAGRYGRGRNVEYEYDYWGQGTKVTVSS | 175000 | <1e-07 | No Binding | 64.9 |  | 
6 | D11: ALPP targeting VHH domain, SEQ ID NO: 29 (protein) VHH: QVQLVESGGGSVQAGGSLRLSCAASGPSLSNYAMGWFRQAPGKEREFVAGISWGGGRTSYTDSVKGRFTISRDNAKNTVYLQMNNLKPEDTGVYYCAGRYGRGRNVEYEYDYWGQGTMVTVSS | 97700 | <1e-07 | No Binding | 78.1 |  | 
7 | E11: ALPP targeting VHH domain, SEQ ID NO: 32 (protein) VHH: QVQLVESGGGSVQAGGSLRLSCAASGPSLSNFAMGWFRQPPGKEREFVAGISWGGGRTSYTDSVKGRFTISRDNAKNTVYLQMNNLKPEDTGVYYCAGRYGRGRNVEYEYDYWGQGTQVTVSS | 149000 | 0.0000018 | No Binding | 78.0 |  | 
8 | E12: ALPP targeting VHH domain, SEQ ID NO: 33 (protein) VHH: QVQLVESGGGSVQAGGSLRLSCAASGPSISNFAMGWFRQAPGKEREFVAGISWGGGRTNYLDSVKGRFTISRDNAKNMVHLQMNSLKPEDTTVYYCAGRYGRGRDVEYEYDYWGQGTQVTVSS | 39200 | 0.000028 | No Binding | 55.5 |  | 
9 | F09: ALPP targeting VHH domain, SEQ ID NO: 36 (protein) VHH: QVQLVESGGGSVQAGGSLRLSCAASGPSLSNYAMGWFRQAPGKEREFVAGISWGGGRTSCTDSVKGRFTISRDNAKNTVYLQMNNLKPEDTGVYYCAGRYGRGRNVEYEYDYWGQGTQVTVSS | 40600 | <1e-07 | No Binding | 72.1 |  | 
10 | F12: ALPP targeting VHH domain, SEQ ID NO: 37 (protein) VHH: QVQLVESGGGLVEAGGSLRLSCAVSGSALSDYNIGWFRQAPGKEREFVARKTWDGSSTKYDDSVKGRFTVSIDNAKNTAYLQMNSLKTEDTAVYYCAAGRYSRVRGWEYDYWGQRTQVTVSS | 38600 | <1e-07 | No Binding | 62.9 |  | 
11 | H09: ALPP targeting VHH domain, SEQ ID NO: 39 (protein) VHH: QVQLVESGGGSVQTGGSLRLSCAASGPSLSNYAMGWFRQAPGKEREFVAGISWGGGRTNYLDSVKGRFTISRDNAKNTMYLQMNSLKPEDTAVYYCAGRYGRGRDVEYEYDYWGQGTQVTVSS | 58600 | <1e-07 | No Binding | 68.8 |  | 
12 | H10: ALPP targeting VHH domain, SEQ ID NO: 40 (protein) VHH: QVQLVESGGGSVQTGGSLRLSCAASGPSLSNYAMGWFRQAPGKEREFVAGISWGGGRTNYLDSVKGRFTISRDNAKNTMYLQMNSLKPEDAAVYYCAGRYGRGRDVEYEYDYWGQGTQVTVSS | 45900 | 0.0000085 | No Binding | 64.9 |  | 
13 | A08: ALPP targeting VHH domain, SEQ ID NO: 18 (protein) VHH: QVQLVESGGGLVQAGESLRLACAASGTIFSGNAVGWYRQAPEKQREWVSSITDYGDTDYAEAVKGRFTISRDNAKNTVYLQMNSLKPEDTAVYYCYVYQRGESEEYWGQGTKVTVSS | 429000 | 0.000012 | No Binding | 71.4 |  | 
